Patent US20090203886A1 (OSAKA UNIVERSITY, published 2009)
Residue numbers refer to the chain shown, from its start. Several values for one entry are separate records, joined by “and”; a condition that tells them apart may be missing. Identical values can stand only once.

T1: human CD20 antigen (human, UniProt P11836 1-297)
T1 sequence (looked up): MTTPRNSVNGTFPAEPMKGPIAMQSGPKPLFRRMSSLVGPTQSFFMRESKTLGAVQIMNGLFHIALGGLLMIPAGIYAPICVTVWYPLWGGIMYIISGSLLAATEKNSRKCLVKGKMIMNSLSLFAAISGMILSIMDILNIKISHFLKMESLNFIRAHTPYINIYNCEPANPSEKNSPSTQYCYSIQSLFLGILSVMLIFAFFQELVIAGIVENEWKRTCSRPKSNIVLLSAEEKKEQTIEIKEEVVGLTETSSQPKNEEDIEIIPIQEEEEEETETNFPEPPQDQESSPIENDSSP

B1: humanized 1K1791 antibody fv (FraL x VenH) (antibody, V domains shown)
VH: QIQLVQSGPELKKPGASVKISCKASGYTFTNFGVNWVKQAPGKGLKWMGWINTYTGEPSYADDFKGRFAFSLDASVSTAYLQISSLKAEDTSTYFCTRRTNYYGTSYYYAMDYWGQGTTVTVSS
VL: STVMTQSPSFLSASVGDRVTITCKASQSVSNDVAWYQQKPGQSPKVLIYFASNRYTGVPDRFSGSGYGTDFTLTISSLQAEDVAVYFCQQDYSSPLTFGAGTKLEIK
notes: Kappa, gamma 1 construct; also called hz1791 fv; Fv010
B2: humanized 1K1791 antibody ff (FraL x FraH) (antibody, V domains shown)
VH: B1 VH with P9S, I20V, V76A, T91M, S92A
VL: B1 VL
notes: Kappa, gamma 1 construct; also called hz1791 ff; Ff019
B3: humanized 1K1791 antibody sf (SdrL x FraH) (antibody, V domains shown)
VH: B1 VH with P9S, I20V, V76A, T91M, S92A
VL: STVMTQSPDSLAVSLGERATINCKSSQSNSNDVAWYQQKPGQSPKVLIYFASNRYSGVPDRFSGSGYGTDFTLTISSLQAEDVAVYFCQQDYSSPLTFGAGTKLEIK
notes: Kappa, gamma 1 construct; also called hz1791 sf; Sf043
B4: humanized 1K1791 antibody ss (SdrL x SdrH) (antibody, V domains shown)
VH: B1 VH with P9S, I20V, K38R, D62Q, D63G, K65T, S92A
VL: B3 VL
notes: Kappa, gamma 1 construct; also called hz1791 ss; Ss020
B5: 1K0924 murine anti CD20 monoclonal antibody (antibody, mouse IgG2b, V domains shown)
VH: QVQLQQPGAELVKPGASVKMSCKASGYTFTSYNIHWVKQTPGQGLEWIGAIYPGNGDTSYNQKFKGKATLTSDKSSSTAYMQLSSLTSEDSAVYYCARMSTMITGFDYWGQGTTLTVSS
VL: QIVLSQSPAILSASPGEKVTMTCRASSSVSYMHWYQQRPGSSPKPWIYATSNLASGVPARFSGSGSGTSYYFTISRVEAEDAATYYCQQWNSNPPTHGGGTKLEIK
notes: also called m0924
B6: humanized 1K1791 antibody as (AbbL x SdrH) (antibody, V domains shown)
VH: B1 VH with P9S, I20V, K38R, D62Q, D63G, K65T, S92A
VL: B3 VL with N29V
notes: Kappa, gamma 1 construct; also called hz1791 as; As001
B7: humanized 1K1791 antibody vv (VenL x VenH) (antibody, V domains shown)
VH: B1 VH
VL: B3 VL with A19V, S25A, N29V, S56T, L73F, L78V, I106L
notes: Kappa, gamma 1 construct; also called hz1791 vv; Vv018
B8: humanized 1K1791 antibody vs (VenL x SdrH) (antibody, V domains shown)
VH: B1 VH with P9S, I20V, K38R, D62Q, D63G, K65T, S92A
VL: B3 VL with A19V, S25A, N29V, S56T, L73F, L78V, I106L
notes: Kappa, gamma 1 construct; also called hz1791 vs; Vs006
B9: humanized 1K1791 antibody fs (FraL x SdrH) (antibody, V domains shown)
VH: B1 VH with P9S, I20V, K38R, D62Q, D63G, K65T, S92A
VL: B1 VL
notes: Kappa, gamma 1 construct; also called hz1791 fs; Fs007
B10: humanized 1K1791 antibody aa (AbbL x AbbH) (antibody, V domains shown)
VH: B1 VH with P9S, I20V, K38R, K46E, D62Q, D63G, K65T, A69V, S92A
VL: B3 VL with N29V
notes: Whole humanized antibody from CHO cells; construct name ends kg1 (kappa, gamma 1); The two clones are producer clones of one construct; also called hz1791 aa; Aa008
B11: humanized 1K1791 antibody sa (SdrL x AbbH) (antibody, V domains shown)
VH: B1 VH with P9S, I20V, K38R, K46E, D62Q, D63G, K65T, A69V, S92A
VL: B3 VL
notes: Kappa, gamma 1 construct; also called hz1791 sa; Sa023
B12: humanized 1K1791 antibody va (VenL x AbbH) (antibody, V domains shown)
VH: B1 VH with P9S, I20V, K38R, K46E, D62Q, D63G, K65T, A69V, S92A
VL: B3 VL with A19V, S25A, N29V, S56T, L73F, L78V, I106L
notes: Kappa, gamma 1 construct; also called hz1791 va; Va016
B13: humanized 1K1791 antibody sv (SdrL x VenH) (antibody, V domains shown)
VH: B1 VH
VL: B3 VL
notes: Kappa, gamma 1 construct; also called hz1791 sv; Sv015
B14: humanized 1K1791 antibody av (AbbL x VenH) (antibody, V domains shown)
VH: B1 VH
VL: B3 VL with N29V
notes: Kappa, gamma 1 construct; also called hz1791 av; Av004
B15: humanized 1K1791 antibody af (AbbL x FraH) (antibody, V domains shown)
VH: B1 VH with P9S, I20V, V76A, T91M, S92A
VL: B3 VL with N29V
notes: Kappa, gamma 1 construct; also called hz1791 af; Af021
B16: humanized 1K1791 antibody vf (VenL x FraH) (antibody, V domains shown)
VH: B1 VH with P9S, I20V, V76A, T91M, S92A
VL: B3 VL with A19V, S25A, N29V, S56T, L73F, L78V, I106L
notes: Kappa, gamma 1 construct; also called hz1791 vf; Vf029
B17: humanized 1K1791 antibody fa (FraL x AbbH) (antibody, V domains shown)
VH: B1 VH with P9S, I20V, K38R, K46E, D62Q, D63G, K65T, A69V, S92A
VL: B1 VL
notes: Kappa, gamma 1 construct; also called hz1791 fa; Fa007
B18: chimerized 1K1791 antibody (c1791) (antibody, V domains shown)
VH: QIQLVQSGPELKKPGETVKISCKASGYTFTNFGVNWVKQAPGKGLKWMGWINTYTGEPSYADDFKGRFAFSLEASANTAYLQINNLKNDDMSTYFCTRRTNYYGTSYYYAMDYWGQGTSVTVSS
VL: STVMTQTPKFLLVSAGDRVTITCKASQSVSNDVAWYQQKPGQSPKVLIYFASNRYTGVPDRFTGSGYGTDFTFTINTVQAEDLAVYFCQQDYSSPLTFGAGTKLELK

Biological target: T1, human CD20 antigen
Assay: cell-based or functional assay

Row | Binder | Apoptosis (5 ug/ml), DHL4 | Apoptosis (5 ug/ml), RAJI | Apoptosis (5 ug/ml), RCK8 | Apoptosis (5 ug/ml), Wil2-NS
1 | B1 | 65 relative, m2B8 = 100 | 88 relative, m2B8 = 100 | 50 relative, m2B8 = 100 | 49 relative, m2B8 = 100
2 | B2 | 96 relative, m2B8 = 100 | 84 relative, m2B8 = 100 | 47 relative, m2B8 = 100 | 49 relative, m2B8 = 100
3 | B3 | 143 relative, m2B8 = 100 | 205 relative, m2B8 = 100 | 93 relative, m2B8 = 100 | 100 relative, m2B8 = 100
4 | B4 | 133 relative, m2B8 = 100 | 202 relative, m2B8 = 100 | 92 relative, m2B8 = 100 | 108 relative, m2B8 = 100

Biological target: T1, human CD20 antigen
Assay: Scatchard analysis on Raji cells, FITC secondary antibody fluorescence (Example 2)
Method: The mixture was shaken for one hour at room temperature while shielding against light and primary antibodies binding to cells were detected. After the reaction, the mixture was centrifuged at 3,000 rpm for three minutes and the cells were recovered. The cells were suspended in 200 μl of PBS to remove unreacted FITC-labeled anti murine IgG (H&L) antibody remaining on the cell surface and then centrifuged at 3,000 rpm for three minutes to remove the supernatant. This operation was repeated twice.
After the detection step, the image was digitized using image analysis software Image Quant (Amersham Bioscience) and analyzed using Excel (Microsoft). Background values for the plate, the PBS solution and FITC-labeled secondary antibody displaying non-specific binding to cells were determined. Then a value for the reaction only between the cells and the FITC-labeled secondary antibodies was obtained. Average values for those four points were subtracted from the fluorescent intensity value for each sample in order to obtain the amount of fluorescence of cell-conjugated FITC-labeled secondary antibody. A standard curve was prepared by measuring the amount of fluorescence at various concentrations of control cell-conjugated FITC-labeled secondary antibodies. Thus the amount of cell-conjugated secondary antibody (number of moles or weight) was calculated. The amount of cell-conjugated primary antibody was calculated assuming that each primary antibody and the FITC-labeled secondary antibody react at a ratio of 1:2. Primary antibody in suspension was calculated by subtracting the cell-conjugated amount from the added amount. When calculating the antibody concentration as a molar concentration, the molecular weight of the monoclonal was taken to be 150,000.
Scatchard analysis was used to calculate the antigen number and dissociation constant (Kd value) refer to Scatchard, G.; Ann. N.Y. Acad.

Row | Binder | Kd
5 | B5 | 1.35 nM

Biological target: T1, human CD20 antigen
Assay: cell-based or functional assay
Remark: another data set of the same source

Row | Binder | Capacity to Induce Apoptosis (Raji cells)
6 | B5 | 60

Biological target: T1, human CD20 antigen
Assay: Scatchard analysis on Raji cells, FITC anti human Fc secondary (Example 3)
Method: (§1) The reaction solution was 1% BSA-PBS solution with a cell number of 5×10⁶ cells and was injected into a 1.5 ml tube to a final volume of 100 μl. Three samples for each test antibody were prepared and four tubes to which antibody was not added were prepared as samples for background calculations.
(§2) After the detecting step, an image was digitized using image analysis software Image Quant (Amersham Bioscience) and analyzed using Excel (Microsoft). Average values for the same test antibodies were calculated and the values for background calculation samples (when only reacting a cell with a FITC-labeled secondary antibody) were subtracted from the test antibody values. The background values derived for the FITC-labeled secondary antibody binding non-specifically to cells, the PBS solution and the plate are omitted. At the same time, a standard curve was prepared by measuring the amount of fluorescence of only FITC-labeled secondary antibodies at amounts of 0, 12.5, 25, 50, 75, 100, 125, and 150 ng per 100 μl. In this manner, the number of moles of secondary antibody binding to cells was calculated. Assuming that each primary antibody and the FITC-labeled secondary antibody react at a ratio of […], the amount of cell-bound primary antibody was calculated. Primary antibody in suspension was calculated by subtracting the bound amount from the added amount. Scatchard analysis was performed using these values in order to calculate a dissociation constant Kd.

Row | Binder | Kd
7 | B1 | 7.17 nM and 7.25 nM
8 | B2 | 8.5 nM and 7.81 nM
9 | B6 | 11.9 nM and 11.5 nM
10 | B7 | 7.14 nM and 7.01 nM
11 | B8 | 8.8 nM and 11.9 nM
12 | B9 | 6.33 nM and 11.1 nM
13 | B10 | 11.7 nM and 9.96 nM
14 | B11 | 14.7 nM
15 | B12 | 13.1 nM and 7.5 nM
16 | B13 | 14.3 nM and 10.8 nM
17 | B14 | 10.7 nM and 9.17 nM
18 | B3 | 11.6 nM and 13.8 nM
19 | B15 | 6.84 nM and 8.67 nM
20 | B16 | 7.78 nM and 7.79 nM
21 | B4 | 24.4 nM and 21.8 nM
22 | B17 | 11.3 nM and 8.83 nM

Biological target: T1, human CD20 antigen
Assay: cell-based or functional assay
Remark: another data set of the same source

Row | Binder | CDC (10 ug/ml), RAJI | CDC (10 ug/ml), RC-K8 | CDC (10 ug/ml), SUDHL4 | CDC (10 ug/ml), WIL2NS
23 | B18 | 99 relative, c2B8 = 100 | 100 relative, c2B8 = 100 | 119 relative, c2B8 = 100 | 529 relative, c2B8 = 100
24 | B1 | 99 relative, c2B8 = 100 | 498 relative, c2B8 = 100 | 120 relative, c2B8 = 100 | 172 relative, c2B8 = 100
25 | B2 | 98 relative, c2B8 = 100 | 530 relative, c2B8 = 100 | 121 relative, c2B8 = 100 | 203 relative, c2B8 = 100
26 | B3 | 78 relative, c2B8 = 100 | 713 relative, c2B8 = 100 | 111 relative, c2B8 = 100 | 295 relative, c2B8 = 100
27 | B4 | 73 relative, c2B8 = 100 | 108 relative, c2B8 = 100 | 61 relative, c2B8 = 100 | 120 relative, c2B8 = 100

Biological target: T1, human CD20 antigen
Assay: Scatchard analysis on Raji cells (Example 3), average over the clones of the construct
Method: as §1, §2

Row | Binder | Kd
28 | B1 | 7.21 nM
29 | B2 | 8.15 nM
30 | B6 | 11.7 nM
31 | B7 | 7.07 nM
32 | B8 | 10.3 nM
33 | B9 | 8.71 nM
34 | B10 | 10.8 nM
35 | B11 | 14.7 nM
36 | B12 | 10.3 nM
37 | B13 | 12.6 nM
38 | B14 | 9.94 nM
39 | B3 | 12.7 nM
40 | B15 | 7.76 nM
41 | B16 | 7.78 nM
42 | B4 | 23.1 nM
43 | B17 | 10.1 nM
